This is an account of results in patent US20130336893A1 (Sanofi, published 2013).

*1 amine or outer side, *2 acyl side, *3 side chain or, on linkers, in order; H or OH if unused. Where no end group is shown, it is not given here. Side-chain parts run from the residue outwards. [ ]: non-standard residue; d: D form. The star is where a group is joined. γGlu = O=C(O)[C@H](CCC(=O)[*:2])N[*:1]; Palmitoyl = CCCCCCCCCCCCCCCC(=O)*; Aib = CC(C)(N)C(=O)O; GABA = NCCCC(=O)O

In one experiment the target is human GLP-1 receptor (human, UniProt P43220 24-463). Kind of experiment: cell-based or functional assay.
For a further experiment, the target named is human glucagon receptor (human, UniProt P47871 26-477). Description: cell-based or functional assay.
Sequence of human glucagon receptor (P47871 26-477): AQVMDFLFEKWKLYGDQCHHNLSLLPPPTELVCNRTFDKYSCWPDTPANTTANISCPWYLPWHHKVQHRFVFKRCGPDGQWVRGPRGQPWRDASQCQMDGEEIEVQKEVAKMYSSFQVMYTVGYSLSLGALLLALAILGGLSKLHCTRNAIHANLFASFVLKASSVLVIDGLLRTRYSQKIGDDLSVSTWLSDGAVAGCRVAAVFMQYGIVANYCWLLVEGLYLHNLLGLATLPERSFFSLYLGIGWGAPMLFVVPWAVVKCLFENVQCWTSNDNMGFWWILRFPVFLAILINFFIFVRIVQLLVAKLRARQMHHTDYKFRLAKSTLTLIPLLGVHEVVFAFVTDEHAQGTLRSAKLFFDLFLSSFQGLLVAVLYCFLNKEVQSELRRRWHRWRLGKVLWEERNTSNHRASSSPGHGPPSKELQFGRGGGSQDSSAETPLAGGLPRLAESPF

As for HSQGTFTSDLSKQMDSRRAQDFIEWLKNGGPSSGAPPPS-NH2 [SEQ ID NO: (9)], the “EC50 hGLP-1R (cAMP formation)” value in the experiment with human GLP-1 receptor was found to be 0.0222 nM. Besides, in the experiment with human glucagon receptor, the “EC50 hGlucagonR (cAMP formation)” value worked out at 0.0264 nM.

B1: SEQ ID NO: (124) (peptide)
peptide: H[dS]QGTFTSDLSKQMESRRAQDFIEWLKSGGPSSGAPPPK([GABA-Palmitoyl])-NH2
modifications: N-terminus assumed
SMILES: CCCCCCCCCCCCCCCC(=O)NCCCC(=O)NCCCC[C@H](NC(=O)[C@@H]1CCCN1C(=O)[C@@H]1CCCN1C(=O)[C@@H]1CCCN1C(=O)[C@H](C)NC(=O)CNC(=O)[C@H](CO)NC(=O)[C@H](CO)NC(=O)[C@@H]1CCCN1C(=O)CNC(=O)CNC(=O)[C@H](CO)NC(=O)[C@H](CCCCN)NC(=O)[C@H](CC(C)C)NC(=O)[C@H](Cc1c[nH]c2ccccc12)NC(=O)[C@H](CCC(=O)O)NC(=O)[C@@H](NC(=O)[C@H](Cc1ccccc1)NC(=O)[C@H](CC(=O)O)NC(=O)[C@H](CCC(N)=O)NC(=O)[C@H](C)NC(=O)[C@H](CCCNC(=N)N)NC(=O)[C@H](CCCNC(=N)N)NC(=O)[C@H](CO)NC(=O)[C@H](CCC(=O)O)NC(=O)[C@H](CCSC)NC(=O)[C@H](CCC(N)=O)NC(=O)[C@H](CCCCN)NC(=O)[C@H](CO)NC(=O)[C@H](CC(C)C)NC(=O)[C@H](CC(=O)O)NC(=O)[C@H](CO)NC(=O)[C@@H](NC(=O)[C@H](Cc1ccccc1)NC(=O)[C@@H](NC(=O)CNC(=O)[C@H](CCC(N)=O)NC(=O)[C@@H](CO)NC(=O)[C@@H](N)Cc1c[nH]cn1)[C@@H](C)O)[C@@H](C)O)[C@@H](C)CC)C(N)=O
As for B1, in the experiment with human GLP-1 receptor, the “EC50 hGLP-1R (cAMP formation)” value is 0.0139 nM. Also, the “EC50 hGlucagonR (cAMP formation)” value with human glucagon receptor turned out to be 0.0213 nM.
The corresponding values for HSQGTFTSDLSKQMDKRRAQDFIEWLKNGGPSSGAPPPS-NH2 [SEQ ID NO: (19)] are 0.017 nM and 0.052 nM.

B2: SEQ ID NO: (114) (peptide)
peptide: H[dS]QGTFTSDLSKQMESEAAQLFIEWLKAGGPSSGAPPPSK([γGlu-Palmitoyl])-NH2
modifications: N-terminus assumed
SMILES: CCCCCCCCCCCCCCCC(=O)N[C@@H](CCC(=O)NCCCC[C@H](NC(=O)[C@H](CO)NC(=O)[C@@H]1CCCN1C(=O)[C@@H]1CCCN1C(=O)[C@@H]1CCCN1C(=O)[C@H](C)NC(=O)CNC(=O)[C@H](CO)NC(=O)[C@H](CO)NC(=O)[C@@H]1CCCN1C(=O)CNC(=O)CNC(=O)[C@H](C)NC(=O)[C@H](CCCCN)NC(=O)[C@H](CC(C)C)NC(=O)[C@H](Cc1c[nH]c2ccccc12)NC(=O)[C@H](CCC(=O)O)NC(=O)[C@@H](NC(=O)[C@H](Cc1ccccc1)NC(=O)[C@H](CC(C)C)NC(=O)[C@H](CCC(N)=O)NC(=O)[C@H](C)NC(=O)[C@H](C)NC(=O)[C@H](CCC(=O)O)NC(=O)[C@H](CO)NC(=O)[C@H](CCC(=O)O)NC(=O)[C@H](CCSC)NC(=O)[C@H](CCC(N)=O)NC(=O)[C@H](CCCCN)NC(=O)[C@H](CO)NC(=O)[C@H](CC(C)C)NC(=O)[C@H](CC(=O)O)NC(=O)[C@H](CO)NC(=O)[C@@H](NC(=O)[C@H](Cc1ccccc1)NC(=O)[C@@H](NC(=O)CNC(=O)[C@H](CCC(N)=O)NC(=O)[C@@H](CO)NC(=O)[C@@H](N)Cc1c[nH]cn1)[C@@H](C)O)[C@@H](C)O)[C@@H](C)CC)C(N)=O)C(=O)O
As to B2, the “EC50 hGLP-1R (cAMP formation)” value with human GLP-1 receptor came out at 0.0031 nM. In addition, the “EC50 hGlucagonR (cAMP formation)” value with human glucagon receptor stood at 0.295 nM.
The corresponding values for HSQGTFTSDLSKQMDSRAAQLFIEWLKNGGPSSGAPPPS-NH2 [SEQ ID NO: (22)] are 0.0008 nM and 0.127 nM.
On the same counts, the results for HSQGTFTSDLSKQMDSRRAQDFIEWLKNGGPSSGAPPPK(Palmitoyl)-NH2 [SEQ ID NO: (21)] are 0.0782 nM and 0.547 nM.

B3: SEQ ID NO: (125) (peptide)
peptide: H[dS]QGTFTSDLSKQMESRRAQDFIEWLKSGGPSSGAPPPSK([GABA-Palmitoyl])-NH2
modifications: N-terminus assumed
SMILES: CCCCCCCCCCCCCCCC(=O)NCCCC(=O)NCCCC[C@H](NC(=O)[C@H](CO)NC(=O)[C@@H]1CCCN1C(=O)[C@@H]1CCCN1C(=O)[C@@H]1CCCN1C(=O)[C@H](C)NC(=O)CNC(=O)[C@H](CO)NC(=O)[C@H](CO)NC(=O)[C@@H]1CCCN1C(=O)CNC(=O)CNC(=O)[C@H](CO)NC(=O)[C@H](CCCCN)NC(=O)[C@H](CC(C)C)NC(=O)[C@H](Cc1c[nH]c2ccccc12)NC(=O)[C@H](CCC(=O)O)NC(=O)[C@@H](NC(=O)[C@H](Cc1ccccc1)NC(=O)[C@H](CC(=O)O)NC(=O)[C@H](CCC(N)=O)NC(=O)[C@H](C)NC(=O)[C@H](CCCNC(=N)N)NC(=O)[C@H](CCCNC(=N)N)NC(=O)[C@H](CO)NC(=O)[C@H](CCC(=O)O)NC(=O)[C@H](CCSC)NC(=O)[C@H](CCC(N)=O)NC(=O)[C@H](CCCCN)NC(=O)[C@H](CO)NC(=O)[C@H](CC(C)C)NC(=O)[C@H](CC(=O)O)NC(=O)[C@H](CO)NC(=O)[C@@H](NC(=O)[C@H](Cc1ccccc1)NC(=O)[C@@H](NC(=O)CNC(=O)[C@H](CCC(N)=O)NC(=O)[C@@H](CO)NC(=O)[C@@H](N)Cc1c[nH]cn1)[C@@H](C)O)[C@@H](C)O)[C@@H](C)CC)C(N)=O
Consider B3, for which, in the experiment with human GLP-1 receptor, the “EC50 hGLP-1R (cAMP formation)” value was found to be 0.0108 nM. Further, the “EC50 hGlucagonR (cAMP formation)” value with human glucagon receptor is 0.0171 nM.

B4: SEQ ID NO: (115) (peptide)
peptide: H[dS]QGTFTSDLSKQMEEEAA[Aib]DFIEWLKAGGPSSGAPPPSK([γGlu-Palmitoyl])-NH2
modifications: N-terminus assumed
SMILES: CCCCCCCCCCCCCCCC(=O)N[C@@H](CCC(=O)NCCCC[C@H](NC(=O)[C@H](CO)NC(=O)[C@@H]1CCCN1C(=O)[C@@H]1CCCN1C(=O)[C@@H]1CCCN1C(=O)[C@H](C)NC(=O)CNC(=O)[C@H](CO)NC(=O)[C@H](CO)NC(=O)[C@@H]1CCCN1C(=O)CNC(=O)CNC(=O)[C@H](C)NC(=O)[C@H](CCCCN)NC(=O)[C@H](CC(C)C)NC(=O)[C@H](Cc1c[nH]c2ccccc12)NC(=O)[C@H](CCC(=O)O)NC(=O)[C@@H](NC(=O)[C@H](Cc1ccccc1)NC(=O)[C@H](CC(=O)O)NC(=O)C(C)(C)NC(=O)[C@H](C)NC(=O)[C@H](C)NC(=O)[C@H](CCC(=O)O)NC(=O)[C@H](CCC(=O)O)NC(=O)[C@H](CCC(=O)O)NC(=O)[C@H](CCSC)NC(=O)[C@H](CCC(N)=O)NC(=O)[C@H](CCCCN)NC(=O)[C@H](CO)NC(=O)[C@H](CC(C)C)NC(=O)[C@H](CC(=O)O)NC(=O)[C@H](CO)NC(=O)[C@@H](NC(=O)[C@H](Cc1ccccc1)NC(=O)[C@@H](NC(=O)CNC(=O)[C@H](CCC(N)=O)NC(=O)[C@@H](CO)NC(=O)[C@@H](N)Cc1c[nH]cn1)[C@@H](C)O)[C@@H](C)O)[C@@H](C)CC)C(N)=O)C(=O)O
For the molecule B4, the “EC50 hGLP-1R (cAMP formation)” value in the experiment with human GLP-1 receptor stood at 0.0007 nM. Further, the “EC50 hGlucagonR (cAMP formation)” value in the experiment with human glucagon receptor amounted to 0.175 nM.
